From paper PMC6633393 (Journal of cell science, 2019)

Molecular target: Histidine-tagged human TEAD4 (amino acids 217–434) (human, UniProt Q15561 217-434)
Assay: native gel or EMSA; TEAD4 incubated with increasing concentrations of VGLL3 peptide before labelled YAP was added; 10 min at room temperature; 10% native gel at 100 V; only labelled YAP is seen
Settings: both partners purified

Sequence of Histidine-tagged human TEAD4 (amino acids 217–434) (Q15561 217-434): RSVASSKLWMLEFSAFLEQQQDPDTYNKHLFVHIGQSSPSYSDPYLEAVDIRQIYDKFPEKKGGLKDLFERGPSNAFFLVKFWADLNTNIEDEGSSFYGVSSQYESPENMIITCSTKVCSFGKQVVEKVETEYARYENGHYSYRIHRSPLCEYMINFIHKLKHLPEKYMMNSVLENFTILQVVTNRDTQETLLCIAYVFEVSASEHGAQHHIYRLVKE

- binding result: binds
B1: Unlabelled human VGLL3 (amino acids 86–112) peptide (peptide, UniProt A8MV65 86-112, looked up)
peptide: SRCVLFTYFQGDIGSVVDEHFSRALGQ
